For one protein, Km results are on record in PMC11106675, “Synthesis of 1,4-azaphosphinine nucleosides and evaluation as inhibitors of human cytidine deaminase and APOBEC3A” (Beilstein Journal of Organic Chemistry, 2024).

Substrate in the data set: Nc1ccn([C@H]2C[C@H](O)[C@@H](CO)O2)c(=O)n1
The experiment in a line: UV kinetic assay of hCDA-catalysed 2'-deoxycytidine deamination. The class given is biochemical, human. The conditions noted are these: other: pH 7.4, fitted in the experiment with inhibitor β-anomer of Vb, 25.0 °C. The method, then: We monitored the hCDA-catalysed deamination of dC at 286 nm and analysed the kinetic profiles at various inhibitor concentrations using a global regression analysis of the kinetic data using Lambert’s W function. This method provides better estimates for the Michaelis–Menten constant (KM) and maximum velocity (Vmax) than nonlinear regression analysis of the initial rate (V0). […] Then, KM for the substrate and Ki for each inhibitor were calculated, assuming competitive nature of the inhibitors (Table 1).
We assumed that protonation of Va might result in some inhibition of hCDA. […] This means that the pH value of the assay should be close to pH 1.5 to see any meaningful effect of partially protonated compound Va, but hCDA would be denatured at this pH value. By lowering the pH value to 6.0, dZ (IIc) started to lose potency against hCDA (Table 1), which might be a result of protonation of the pyrimidine ring in dZ (IIc). […]
Figure S10. hCDA (27nM) catalysed deamination of 2'-deoxycitidine (⁓1.5 mM) in the absence (plus) and presence of 5 µM 2'-deoxyzebularine (IIc, asterisk) monitored by measuring absorbance at 286 nm over time in 100 mM NaCl, 1 mM TCEP, 50 mM phosphate buffer at 25 °C, at pH 7.4. […]
where mm(t) calculates the current substrate concentration with respect to the time, t. […] A summary of the measured inhibition […]
Uncertainty of Ki was calculated using error-propagation method. […]

B1: human cytidine deaminase (hCDA) (Homo sapiens) (protein)
chain: MAQKRPACTLKPECVQQLLVCSQEAKKSAYCPYSHFPVGAALLTQEGRIFKGCNIENACYPLGICAERTAIQKAVSEGYKDFRAIAIASDMQDDFISPCGACRQVMREFGTNWPVYMTKPDGTYIVMTVQELLPSSFGPEDLQKTQ
notes: purchased Sigma-Aldrich SRP6372; host or cells: E. coli
On to B1, for which the Km came out at 240 ± 150 µM.
